Test results as given in paper doi:10.1101/2022.06.04.494830, “The oncogenic fusion protein EWS-FLI1 promotes premature ageing of biomolecular condensates by catalyzing fibril formation” (bioRxiv, 2022).

Target: PU.1 DNA-binding domain (PU.1^DBD, PU.1 168-270) (human, UniProt P17947 168-270)
Assay: NMR titration; 1H,15N-HSQC of 50 uM 15N PU.1 168-270 in 50 mM sodium phosphate pH 6.5, 25 C, titrated with unlabeled EWS^LCD (2 mM stock in 20 mM CAPS pH 11) to 12.5, 25, 50, 100 and 150 uM (~3:1)
Details: both partners purified

- binding result: binds
B1: EWS low-complexity domain (EWS^LCD, EWS 1-264) (domain or fragment)
chain: MASTDYSTYSQAAAQQGYSAYTAQPTQGYAQTTQAYGQQSYGTYGQPTDVSYTQAQTTATYGQTAYATSYGQPPTGYTTPTAPQAYSQPVQGYGTGAYDTTTATVTTTQASYAAQSAYGTQPAYPAYGQQPAATAPTRPQDGNKPTETSQPQSSTGGYNQPSLGYGQSNYSYPQVPGSYPMQPVTAPPSYPPTSYSSTQPTSYDQSSYSQQNTYGQPSSYGQQSSYGQQSSYGQQPPTSYPPQTGSYSQAPSQYSQQSSSYGQQ
notes: In the fluorescence microscopy 1% of the EWS^LCD carried DyLight 650 or 488, attached through a dye-labelled KLPETGG peptide with sortase; also called EWS^LCD,650; EWS^LCD,488; source: E. coli BL21 Star (DE3) or BL21 (DE3) pLysS, purified (IMAC or cation exchange, TEV cleavage, SEC; 20 mM CAPS pH 11); not shown: His tag (6 or 8 x), N-terminal, cleaved
